# Assay results: paper PMC11588112 (Proceedings of the National Academy of Sciences of the …, 2024)
# Molecular target: mumps hemagglutinin neuraminidase (HN) globular head domain, monomeric (Mumps virus genotype G (strain not …))
row,Binder,binding result
1,"B11 (antibody, V domains shown) VH: EVQLQQSGAEPVRPGTSVKFSCKASGYTLTDYWMHWVKQRPGQGLDWIGVIDPSDSYTTYNQKFKGKATLTVDKSSSTAYMQLSSLTSEDSAVYYCARGPTLYYFDYWGQGTTLTVSS VL: DIVMTQPQKFMSTSVGDRVSVTCKASQNVGTNVVWCQQKPGQSPKALIYSASYLYSGVPDRFTGTGSGTDFTLTISNVQSEDLAEYFCQQYNNYPLTFGAGTKLELK",binds
2,"E10 (antibody, V domains shown) VH: EVQLQQSGAELVRPGSSVKLSCKASGYTFTWYWIDWMKQRPGQGLEWIGNIYPSDSEVQYNQKFKDRATLTLDKSSTTAYMQLSSLTSEDSAVYYCARRLYDYFALDFWGQGTSVTVSS VL: DIVMTQAAFSNPVTLGTSASISCRSSKSLQHSNGITYLYWYLQKPGQSPQLLIYQMSKFASGVPDRFSSSGSGTDFTLRISRVEAEDVGVYYCAQNLELPWTFGGGTKLEIK",binds
3,"F10 (antibody, V domains shown) VH: EVQLQQSGAELVRPGSSVKLSCKASGYTFTWYWIDWLKQRPGQGLEWIGNIYPSDSAVQYNQNFKDRATLTLDTSSTTAYLHLSSLTSEDSAVYYCARRIYDYFALDFWGQGTSVTVSS VL: DIVMTQAAFSHPVTLGTSASISCRSSKSLQHSNGITFLYWYLQKPGQSPQLLIYQMSKLASGIPDRFSSSGSGTDFTLRISRVEAEDVGVYYCAQNLELPWTFGGGTKLEIK",binds
4,"F11 (antibody, V domains shown) VH: EVQLQQSGPELVKPGASVKISCKASGYTFTDYYMNWVKQSHGKSLEWVGDINPNNGVTRYNQNFKGKGTMTVDKSSRTAYMEFRSLTSEDSAVYYCGRLGYYGKYKDGMDYWGQGTSVTVSS VL: DIQMTQSPASLSVSVGETVTITCRASDNIYSNLAWYQQRQGKSPQLLVYAATNLLDGVPSRFSGSGSGTHYSLKINSLQSEDFGTYYCQHFWGTPFTFGSGTKLEIK",binds
5,"D11 (antibody, V domains shown) VH: EVQLQQSGAELVRPGTSVKLSCKTSGYTFISYWIHWVKQRPGQGLEWIGVIDPSDSYTNYNQNFKGKVTLTVDTSSSTAYMQLSSLTSEDSAVYYCARFDYDDYWGQGTTLTVSS VL: QIVLTQSPAIMSASPGEKVTMTCSASSSVTYMQWYKQKSGTSPKRWIYDTSKLASGVPARFSGSGSGTSYSLTISSMEAEDAATYYCQQWNTNPWTFGGGTKLEIK",binds
6,"G9 (antibody, V domains shown) VH: EVQLQQSGPEQVRTGASVKISCKASGYFFTGYYLHWVRQSHGKSLEWIGYIRSYNGATKYNQKFEGKTTFTVDTSSSTAYMQINSLTSEDSAVYYCAKDEDSGYAMDYWGQGTSVTVSS VL: DIVMTQSHKFMSTLVGDRVAITCKASQDVSSAVAWYQQKPGQSPKLLIYSASYRFTGVPDRFTGSGSGTDFTFTITTVQTEDLAIYFCQQHYSLPWTFGGGTKLEIK",binds
7,"C9 (antibody, V domains shown) VH: EVKLLQSGGGLVQPGGSLKLSCAASGIDFSRYWMGWVRRAPGKGLEWIGEINPDSSTINYAPSLKDKFIISRDNAKNTLYLQMIKVRSEDTALYYCARYWADWFFDVWGTGTTVTVSS VL: DIQMTQSSSYLSVSLGGRVTITCTASDHIDNWLAWYQQKPGNAPRLLLSGATSLDTGVPSRFSGSGSGKDFTLSITSLQTEDVATYYCQQYWSTPYTFGGGTKLEIK",binds
8,"B12 (antibody, V domains shown) VH: EVQLQQSGPELVKPGASVKIPCKASGYTFTEYNMDWVKQSHGKSLEWIGDINPNNGDTIYNQKFKGKATLTVDKASSTAYMELRSLTSEDTAVYYCARGTLYGSNYYFVMDYWGQGTSVTVSS VL: DIQITQSPASLSASVGETVTITCGASENIYGALNWFQRKQGKSPQLLIYGATTLADGMSSRFSGNGSGRQYSLKISGLHPDDVATYYCQNVLSIPWTFGGGTKLEIK",binds
9,"C7 (antibody, V domains shown) VH: QITQKSEGSGILQPSQTLSLTCSFSGFSLNISGMGVGWIRQPSGKGLEWLAHIWWDDVKRYNPALKSRLTISKDTSSRQVFLKIASVDTADTATYYCVRIDNSYAMDYWGQGTSVTVSS VL: DIVLTQSPASLAVSLGQRATISCRASKSVSTSGYSYVHWFQQKPGQPPKLLIYLASNLESGVPARFSGSGSGTDFTLNIHPVEEEDAATYYCQHSRELPWTFGGGTKLEIK",binds
10,"E7 (antibody, V domains shown) VH: EVKLVESGGGLVQPGGSLRLSCATSGFTFTDYYMSWVRQTPGKALEWLGFIRNKPNGYTTEYNASVKGRFTISRDNSRSVLYLQMNVLRAEDSATYFCARVPHDYGFFDYWGQGTTLTVSS VL: DVLMTQSPLSLPVSLGDQASISCRSSQSIEHINGHTYLEWYLQKPGQSPKVLIYKVSNRFSGVPDRFSGSGSGTDFTLRISRVEAEDLGVYYCFQASHLPYTFGGGTKLEIK",binds
11,"G6 (antibody, V domains shown) VH: QIQLVQSGPELKKPGETVKISCKASGYTFTPYGLSWVKQAPGKVLKWMGWINTSSGVPTYADDFKGRFAFSLETSVSTAYLQINNLKNEDTATYFCARISVSFYYGLYFDYWGQGTTLTVSS VL: DIQMTQSPSSMSVSLGDTVSITCHASQGIANNIGWLQQKPGKSFKGLLYHGSTLEDGVPSRFSGSGSGAAYSLTISSLESEDFADYYCIQYAQLPYTFGGGTKLEIK",binds
